Test results taken from PMC2680354.

Experiments:
[1] = molecular target: rapamycin-mediated complex of FKBP-WASP VCA-His6 and mTOR-WASP VCA-FLAG; test: pull-down
[2] = molecular target: N-WASPC (autoinhibited C-terminal fragment of N-WASP) (UniProt O08816); test: ITC
[3] = molecular target: N-WASPC (autoinhibited C-terminal fragment of N-WASP) (UniProt O08816)
[4] = molecular target: glutathione S-transferase (GST)

Chain of N-WASPC (autoinhibited C-terminal fragment of N-WASP) (O08816 whole entry, the tested form may be a part): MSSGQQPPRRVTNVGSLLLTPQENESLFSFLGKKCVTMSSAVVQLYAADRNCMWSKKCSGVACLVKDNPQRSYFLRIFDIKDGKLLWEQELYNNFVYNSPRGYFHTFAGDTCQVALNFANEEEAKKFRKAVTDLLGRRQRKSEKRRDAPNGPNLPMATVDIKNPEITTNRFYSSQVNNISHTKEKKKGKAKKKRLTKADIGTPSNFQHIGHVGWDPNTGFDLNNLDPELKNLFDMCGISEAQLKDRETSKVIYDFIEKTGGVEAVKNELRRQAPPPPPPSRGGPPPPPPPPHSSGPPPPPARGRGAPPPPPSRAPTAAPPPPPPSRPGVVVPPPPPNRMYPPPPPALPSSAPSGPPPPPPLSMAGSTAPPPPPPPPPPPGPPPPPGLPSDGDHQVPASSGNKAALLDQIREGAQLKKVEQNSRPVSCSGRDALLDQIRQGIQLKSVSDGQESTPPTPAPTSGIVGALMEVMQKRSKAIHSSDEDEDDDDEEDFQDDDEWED
Chain of EspFu 2RC (identical repeats four and five) (P0DJ88 whole entry, the tested form may be a part): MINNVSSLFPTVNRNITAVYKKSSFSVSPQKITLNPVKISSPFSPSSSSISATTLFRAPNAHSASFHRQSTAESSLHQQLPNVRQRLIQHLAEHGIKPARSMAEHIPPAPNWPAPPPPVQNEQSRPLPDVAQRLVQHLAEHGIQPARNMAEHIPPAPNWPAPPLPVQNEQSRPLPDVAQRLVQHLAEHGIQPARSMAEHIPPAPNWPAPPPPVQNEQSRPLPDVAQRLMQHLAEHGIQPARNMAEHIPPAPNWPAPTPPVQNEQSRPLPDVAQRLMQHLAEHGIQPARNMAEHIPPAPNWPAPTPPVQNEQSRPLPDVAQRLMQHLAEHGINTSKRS
Chain of glutathione S-transferase (GST) (natural protein) (P08515 2-218): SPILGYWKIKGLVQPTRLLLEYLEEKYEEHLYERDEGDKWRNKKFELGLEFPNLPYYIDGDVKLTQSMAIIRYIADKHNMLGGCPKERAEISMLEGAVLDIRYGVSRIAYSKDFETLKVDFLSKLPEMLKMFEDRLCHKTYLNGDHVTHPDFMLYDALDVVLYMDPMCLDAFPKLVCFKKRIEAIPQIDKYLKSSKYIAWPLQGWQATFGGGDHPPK
Chain of EspFu 1R (a single repeat of EspFu, the fourth repeat) (P0DJ88 whole entry, the tested form may be a part): as the sequence (P0DJ88 whole entry, the tested form may be a part) above

Substance: Arp2/3 complex, endogenous in HEK293 cells (from UniProt P61158 1-418)
- fold increase in precipitated Arp2/3 with rapamycin over no rapamycin [1]: > 3 fold

Substance: EspFu 1R (a single repeat of EspFu, the fourth repeat) (from UniProt P0DJ88 1-337) (domain or fragment)
- Kd [2]: 35 nM

Substance: EspFu 2RC (identical repeats four and five) (from UniProt P0DJ88 1-337) (domain or fragment)
- Kd [2]: 39 nM
- fold tighter affinity than 2R [3]: 3 fold

Substance: glutathione S-transferase (GST) (natural protein)
- Kd [4]: < 1 nM
